Measurements from patent publication US20200087373A1 (UNIVERSITY OF COPENHAGEN, published 2020).
Ends that are not written are not given here. * marks the point of attachment. C16 diacid = O=C(O)CCCCCCCCCCCCCCC(=O)*

What was measured:
[1] = biological target: T1, human GIP receptor (human, UniProt P48546 22-466); assay: 125I-hGIP competition binding, COS-7 cells expressing hGIPR;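 further: nonspecific binding taken as radioligand bound by untransfected cells, binding buffer with or without 2% HSA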
T1 construct: whole, on cells; also called hGIPR
T1 sequence (looked up): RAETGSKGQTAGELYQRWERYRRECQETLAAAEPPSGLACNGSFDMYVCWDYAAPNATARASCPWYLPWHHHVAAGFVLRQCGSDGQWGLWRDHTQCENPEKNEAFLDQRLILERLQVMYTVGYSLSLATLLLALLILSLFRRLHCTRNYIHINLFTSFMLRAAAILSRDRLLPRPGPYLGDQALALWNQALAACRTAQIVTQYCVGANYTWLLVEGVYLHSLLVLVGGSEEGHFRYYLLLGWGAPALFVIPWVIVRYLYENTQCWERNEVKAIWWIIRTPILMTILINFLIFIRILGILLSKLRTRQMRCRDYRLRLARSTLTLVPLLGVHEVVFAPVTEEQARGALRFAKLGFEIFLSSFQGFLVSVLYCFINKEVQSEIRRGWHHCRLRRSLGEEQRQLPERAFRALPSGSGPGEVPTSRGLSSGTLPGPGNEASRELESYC
Experimental: (§1) After incubation, the cells were washed twice in ice-cold binding buffer (+/−2% HSA) and lysed using 200 mM NaOH with 1% SDS for 30 min. Nonspecific binding was determined as the binding of radioactive ligand to untransfected cells.

[2] = biological target: T1, human GIP receptor; assay: cell-based or functional assay
[3] = biological target: T1, human GIP receptor; assay: 125I-hGIP competition binding, COS-7/hGIPR, 2% HSA;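 further: nonspecific binding defined as radioligand binding to untransfected cells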
Experimental: as §1

[4] = biological target: T1, human GIP receptor; assay: 125I-hGIP competition binding, COS-7/hGIPR, 0.1% casein;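 further: nonspecific binding defined as radioligand binding measured on untransfected cells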
Experimental: as §1

[5] = biological target: T1, human GIP receptor; assay: IC50 with 2% HSA over IC50 with 0.1% casein, 125I-hGIP competition, COS-7/hGIPR
Experimental: as §1

B1: AT180 [hGIP(5-30)NH2[Q20K]-C16diacid/20] (peptide)
peptide: TFISDYSIAMDKIHQK(C16 diacid)DFVNWLLAQK-NH2
modifications: N-terminus assumed
SMILES: CC[C@H](C)[C@H](NC(=O)[C@H](CO)NC(=O)[C@H](Cc1ccc(O)cc1)NC(=O)[C@H](CC(=O)O)NC(=O)[C@H](CO)NC(=O)[C@@H](NC(=O)[C@H](Cc1ccccc1)NC(=O)[C@@H](N)[C@@H](C)O)[C@@H](C)CC)C(=O)N[C@@H](C)C(=O)N[C@@H](CCSC)C(=O)N[C@@H](CC(=O)O)C(=O)N[C@@H](CCCCN)C(=O)N[C@H](C(=O)N[C@@H](Cc1c[nH]cn1)C(=O)N[C@@H](CCC(N)=O)C(=O)N[C@@H](CCCCNC(=O)CCCCCCCCCCCCCCC(=O)O)C(=O)N[C@@H](CC(=O)O)C(=O)N[C@@H](Cc1ccccc1)C(=O)N[C@H](C(=O)N[C@@H](CC(N)=O)C(=O)N[C@@H](Cc1c[nH]c2ccccc12)C(=O)N[C@@H](CC(C)C)C(=O)N[C@@H](CC(C)C)C(=O)N[C@@H](C)C(=O)N[C@@H](CCC(N)=O)C(=O)N[C@@H](CCCCN)C(N)=O)C(C)C)[C@@H](C)CC
[1]
  IC50: 106 nM
  log IC50: -7 log M
[2]
  cAMP agonism, Emax: 0
  cAMP antagonism: 37 nM
  cAMP antagonism, log: -7.4 log M
[3]
  IC50: 1700 nM
  logIC50: -5.8 log M
[4]
  IC50: 457 nM
  logIC50: -6.3 log M
[5]
  Fold change HSA (2%)/Casein (0.1%): 3.7 fold

B2: AT181 [hGIP(5-30)NH2[D21K]-C16diacid/21] (peptide)
peptide: TFISDYSIAMDKIHQQK(C16 diacid)FVNWLLAQK-NH2
modifications: N-terminus assumed
SMILES: CC[C@H](C)[C@H](NC(=O)[C@H](CO)NC(=O)[C@H](Cc1ccc(O)cc1)NC(=O)[C@H](CC(=O)O)NC(=O)[C@H](CO)NC(=O)[C@@H](NC(=O)[C@H](Cc1ccccc1)NC(=O)[C@@H](N)[C@@H](C)O)[C@@H](C)CC)C(=O)N[C@@H](C)C(=O)N[C@@H](CCSC)C(=O)N[C@@H](CC(=O)O)C(=O)N[C@@H](CCCCN)C(=O)N[C@H](C(=O)N[C@@H](Cc1c[nH]cn1)C(=O)N[C@@H](CCC(N)=O)C(=O)N[C@@H](CCC(N)=O)C(=O)N[C@@H](CCCCNC(=O)CCCCCCCCCCCCCCC(=O)O)C(=O)N[C@@H](Cc1ccccc1)C(=O)N[C@H](C(=O)N[C@@H](CC(N)=O)C(=O)N[C@@H](Cc1c[nH]c2ccccc12)C(=O)N[C@@H](CC(C)C)C(=O)N[C@@H](CC(C)C)C(=O)N[C@@H](C)C(=O)N[C@@H](CCC(N)=O)C(=O)N[C@@H](CCCCN)C(N)=O)C(C)C)[C@@H](C)CC
[1]
  IC50: 48 nM
  log IC50: -7.3 log M
[2]
  cAMP agonism: 2 nM
  cAMP agonism, EC50 (log): -9 log M
  cAMP agonism, Emax: 9
  cAMP antagonism: 16 nM
  cAMP antagonism, log: -7.8 log M
[3]
  IC50: 550 nM
  logIC50: -6.3 log M
[4]
  IC50: 105 nM
  logIC50: -7 log M
[5]
  Fold change HSA (2%)/Casein (0.1%): 5.2 fold

B3: AT182 [hGIP(5-30)NH2[F22K]-C16diacid/22] (peptide)
peptide: TFISDYSIAMDKIHQQDK(C16 diacid)VNWLLAQK-NH2
modifications: N-terminus assumed
SMILES: CC[C@H](C)[C@H](NC(=O)[C@H](CO)NC(=O)[C@H](Cc1ccc(O)cc1)NC(=O)[C@H](CC(=O)O)NC(=O)[C@H](CO)NC(=O)[C@@H](NC(=O)[C@H](Cc1ccccc1)NC(=O)[C@@H](N)[C@@H](C)O)[C@@H](C)CC)C(=O)N[C@@H](C)C(=O)N[C@@H](CCSC)C(=O)N[C@@H](CC(=O)O)C(=O)N[C@@H](CCCCN)C(=O)N[C@H](C(=O)N[C@@H](Cc1c[nH]cn1)C(=O)N[C@@H](CCC(N)=O)C(=O)N[C@@H](CCC(N)=O)C(=O)N[C@@H](CC(=O)O)C(=O)N[C@@H](CCCCNC(=O)CCCCCCCCCCCCCCC(=O)O)C(=O)N[C@H](C(=O)N[C@@H](CC(N)=O)C(=O)N[C@@H](Cc1c[nH]c2ccccc12)C(=O)N[C@@H](CC(C)C)C(=O)N[C@@H](CC(C)C)C(=O)N[C@@H](C)C(=O)N[C@@H](CCC(N)=O)C(=O)N[C@@H](CCCCN)C(N)=O)C(C)C)[C@@H](C)CC
[1]
  IC50: 962 nM
  log IC50: -6 log M
[2]
  cAMP agonism: 634 nM
  cAMP agonism, EC50 (log): -6 log M
  cAMP agonism, Emax: 13
  cAMP antagonism: 634 nM
  cAMP antagonism, log: -6.2 log M
[3]
  IC50: 141 nM
  logIC50: -6.9 log M
[4]
  IC50: 47.9 nM
  logIC50: -7.3 log M
[5]
  Fold change HSA (2%)/Casein (0.1%): 3 fold
